Reference: patent publication US20050079218A1, “Matrices for the stabilizing and controlled release of problematic substances” (priority 2001, published 2005)

Tests used:
[1] = release of model substances from cylindrical lipid carrier systems with differing gelatin content (FIGS. 3 and 4); type: physicochemical; details: phosphate buffer pH 7.4, 37° C.; for period of controlled release: lipid matrix with 0, 1, 5, 10 and 20% gelatin, cylindrical; for control of release via gelatin content: fluorescence intensity
Text: FIGS. 3 and 4 show diagrams illustrating the dependence of the rate of release on the proportion of release-controlling substance in the carrier system according to the invention. In the embodiment shown in FIGS. 3 and 4, a lipid matrix composed of glycerol tripalmitate with differing gelatin contents […]. The carrier system used is cylindrical in shape.
The proportion of gelatin within the carrier system is 0, 1, 5, 10 and 20%.
The quantity released in percent is shown on the ordinate, and the time in days on the abscissa.
Substances used for the release from the carrier system (for example pyranine or tetramethylrhodamine-labelled bovine serum albumin (TAMRA-BSA) were dispersed in the desired quantity in an aqueous 15% (m/m) gelatin solution. 100-μl portions of this dispersion were pipetted into each opening in a 96-hole plate, and freeze-dried. The lyophilisate was comminuted in a mortar, and mixed with glyceryl trimyristate in a desired percentage. Powder mixtures with a content of up to 30% (m/m) of gelatin resulted. Cylindrical carrier systems were produced by compressing the corresponding proportions by weight of gelatin with lipid granulate. To this end, 7 mg of substance was produced in a 2-mm pressing tool using a compressive force of 250 N over 10 sec. In this way, carrier system charged with pyranine or fluorescence-labelled bovine serum albumin (TAMRA-BSA) were produced in the composition, as shown in Table 1.
(§1) To test the release of model substances from carrier systems depending on the content of release-controlling substance, the cylinders obtained in Example 1 were incubated at 37° C. in 40 ml of phosphate buffer at pH 7.4. The release of the substances was monitored by measuring the fluorescence intensity. To this end, pyranine was excited at 407 nm and the emission measured over 436 nm. The TAMRA-BSA content was determined at a wavelength of 572 nm with excitation at 541 nm.

[2] = release of active hyaluronidase from carrier matrices in phosphate buffer, activity via Morgan-Elson reaction (FIG. 1); type: physicochemical
Description: The ordinate gives the release quantity of hyaluronidase in percent, and the abscissa the time in hours.
as §1
To test the stabilising properties of the carrier systems, glyceryl trimyristate was worked up with hyaluronidase. To this end, 25 mg neopermease, a mixture of 200,000 IU hyaluronidase and gelatin, was mixed with 325 mg of lipid and compressed as described in Example 1 to form cylindrical carrier systems weighing 7 mg. The gelatin content of this mixture was approximately 7.1%. To determine the release of the enzyme, 5 matrices were incubated with phosphate buffer as described in Example 2, and the release determined by measuring the activity via the Morgan-Elson reaction (Muckenschnabel I., Cancer Lett. 131(1) (1998) 13 to 20).

U78 MG tumour = experiment: efficacy of BCNU matrices in tumour-bearing nude mice (FIG. 2); type: in vivo; details: U78 MG tumour subcutaneously inoculated
Description: Thus the effectiveness of BCNU in tumour-bearing nude mice (U78 MG tumour subcutaneously inoculated) is the same for a lipid matrix according to the invention and for a conventional polyanhydride matrix, as shown in FIG. 2.
In FIG. 2, the area of the tumour is plotted in […] on the ordinate, and the time in days on the abscissa.

[3] = cited from earlier work

TAMRA-BSA: bovine serum albumin fluorescence-labelled with tetramethylrhodamine
period of controlled release [1]: over a number of weeks or months | control of release via gelatin content [1]: optimally controlled via the gelatin content

hyaluronidase
activity liberated from carrier system ([2]; glyceryl trimyristate cylinders, gelatin approximately 7.1%, phosphate buffer pH 7.4, 37° C.): all the activity is liberated | effect of release on the enzyme ([2]; release from conventional system poly(1,3-bis[carboxyphenoxypropane]-sebacic acid) 20:80): inactivation | activity of the enzyme achieved on release ([2]; release from glyceryl tripalmitate matrix): 100%

O=S(=O)([O-])c1cc(O)c2ccc3c(S(=O)(=O)[O-])cc(S(=O)(=O)[O-])c4ccc1c2c34.[Na+].[Na+].[Na+] [pyranine]
period of controlled release [1]: over a period of several weeks | control of release via gelatin content [1]: optimally controlled via the gelatin content

O=NN(CCCl)C(=O)NCCCl [BCNU, carmustine]
effectiveness (tumour area over time), lipid matrix versus conventional polyanhydride matrix (U78 MG tumour): the same | half-life in plasma [3]: approximately 20 minutes
